Key:
[1] = molecular target: bifunctional TreS-Mak of Estrella lausannensis (trehalose synthase-maltokinase) (Estrella lausannensis); experiment: SEC
SEC = molecular target: the molecule itself; experiment: SEC

Molecule | stoichiometry N [1] | stoichiometry N (SEC)
bifunctional TreS-Mak of Estrella lausannensis (trehalose synthase-maltokinase) (enzyme) | 2 | –
GlgE of Estrella lausannensis (maltosyl-1-phosphate transferase) (enzyme, UniProt A0A0H5DRC6 1-675, looked up) MSVSAAEKRQLLTQVKASGSMYTNTLHSIVIQNISPKPEPFGPAKRVLLEQVEVEADIFTDPHTKLEADLIVKAPGLRKTTRIPFHPLVNDRFKAVFVPDTPGTYSFFVEAWVNPAALWQEDLRKKQEARLDLTVDLQIGAALLVEVADLLPPEESVKLLQIAKKLREQKGAEAVAFDPEIARLGRLARPKSRQGVCSQEQEVFVTRKKALFSTWYELFPRSCSGTMRHGTFNDVVAKLPRISRMGFDVLYLPPIHPIGKTKRKGKNNALTALPDDPGSPWAVGSHEGGHDAIQRELGTLADFERLVKEAESLGIEIALDIALQCSPDHPYLKEHPEWFLKRPDGTYQYAENPPKKYEDIIPFHFTEDNKDTLFREILRIFLFWMKRGVRIFRVDNPHTKPFALWEYVIGEVRKVDSGVIFLAEAFTRPKIMHHLARIGFDQSYTYFTWRNTKWELTEYLTELTKTEARNYLRPNFFVNTPDILPESLQWGGRAAFLTRLILAATLSSSYGIYGPAFEQMLSEAVPGKEDYIDSEKYEIKPWDFEKKGTISETIEIVNRIRKENPALQATGNLEFYATDNDYLLAYGKQGPQGESLLIVVNLDHYHTQSGYVTLPLMHLGIQEKEPYLVDDLLSGERYIWEGERNYIQLSPHLVPAHIFRIRPKMLRENNFDYFI | – | 2

Source: doi:10.1101/2020.06.02.131169 (bioRxiv, 2020)
